Measurements from paper PMC9415858.
pKd: −log10 of the molar value. Several values for one entry are separate records, joined by “and”; a condition that tells them apart may be missing. Identical values can stand only once.

Biological target: His-Tagged FcRn (UniProt P55899)
Test: SPR; His-tagged FcRn captured on an anti-His IgG1 antibody CM5 chip; antibody samples as analyte at 15, 5 and 1.66 nM in HBS-EP pH 6.0, 30 µL/min, 22 °C; steady-state model (the same data also fitted with a two-state model); mean of at least 5 measurements

UniProt P55899, sequence (P55899 24-297): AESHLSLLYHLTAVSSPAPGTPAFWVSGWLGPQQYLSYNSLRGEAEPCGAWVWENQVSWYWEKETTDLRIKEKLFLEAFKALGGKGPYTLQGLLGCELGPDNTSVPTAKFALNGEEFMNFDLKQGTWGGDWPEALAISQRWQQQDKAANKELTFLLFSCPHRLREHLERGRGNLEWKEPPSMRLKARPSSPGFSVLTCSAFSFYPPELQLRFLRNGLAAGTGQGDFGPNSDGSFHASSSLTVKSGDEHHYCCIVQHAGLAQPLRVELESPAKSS

For “Avastin (unfractionated innovator product) (antibody)”, the pKd was 7.60 and 7.64.
